Assay results published in publication PMC10194908 (2023).

T1: Recombinant NS1 from DENV-4-Dominica/814669/1981 (dengue virus serotype 4 …, UniProt P09866 775-1126)
T1 chain: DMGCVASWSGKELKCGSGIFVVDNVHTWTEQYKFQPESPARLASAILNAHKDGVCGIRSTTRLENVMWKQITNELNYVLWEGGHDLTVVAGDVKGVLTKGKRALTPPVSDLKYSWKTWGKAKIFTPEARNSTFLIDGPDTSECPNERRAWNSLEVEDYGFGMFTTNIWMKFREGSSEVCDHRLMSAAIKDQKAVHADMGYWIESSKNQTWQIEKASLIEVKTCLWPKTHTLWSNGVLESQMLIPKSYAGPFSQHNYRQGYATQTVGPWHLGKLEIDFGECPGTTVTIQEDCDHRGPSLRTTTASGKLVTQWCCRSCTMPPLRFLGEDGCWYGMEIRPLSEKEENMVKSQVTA

T2: Recombinant NS1 from DENV-3-Sri Lanka D3/H/IMTSSA-SRI/2000/1266 (dengue virus serotype 3 (Sri Lanka …, UniProt Q6YMS4 774-1125))
T2 chain: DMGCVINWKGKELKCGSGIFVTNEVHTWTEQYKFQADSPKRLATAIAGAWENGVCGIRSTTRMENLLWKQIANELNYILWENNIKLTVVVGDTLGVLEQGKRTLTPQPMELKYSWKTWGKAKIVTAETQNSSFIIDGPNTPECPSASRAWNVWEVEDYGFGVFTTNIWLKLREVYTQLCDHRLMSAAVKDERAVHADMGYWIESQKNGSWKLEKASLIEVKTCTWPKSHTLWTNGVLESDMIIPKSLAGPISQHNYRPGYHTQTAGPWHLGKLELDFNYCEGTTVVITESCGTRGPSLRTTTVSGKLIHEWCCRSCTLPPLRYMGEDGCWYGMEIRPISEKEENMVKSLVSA

B1: Recombinant NS1 from DENV-1-Nauru/Western Pacific/1974 (natural protein)
chain: DSGCVINWKGRELKCGSGIFVTNEVHTWTEQYKFQADSPKRLSAAIGKAWEEGVCGIRSATRLENIMWKQISNELNHILLENDMKFTVVVGDVSGILAQGKKMIRPQPMEHKYSWKSWGKAKIIGADVQNTTFIIDGPNTPECPDNQRAWNIWEVEDYGFGIFTTNIWLKLRDSYTQVCDHRLMSAAIKDSKAVHADMGYWIESEKNETWKLARASFIEVKTCIWPKSHTLWSNGVLESEMIIPKIYGGPISQHNYRPGYFTQTAGPWHLGKLELDFDLCEGTTVVVDEHCGNRGPSLRTTTVTGKTIHEWCCRSCTLPPLRFKGEDGCWYGMEIRPVKEKEENLVKSMVSA

Experiments:
Assay in all cases: BLI
[1] = molecular target: Den3
[2] = molecular target: T3, Recombinant NS1 from DENV-2-Thailand/16681/84 (dengue virus serotype 2 …, UniProt P29990 776-1127)
[3] = molecular target: B1
[4] = molecular target: T1, Recombinant NS1 from …
[5] = molecular target: T3, Recombinant NS1 from …; remark: listed apart in the source
[6] = molecular target: B1
[7] = molecular target: T1, Recombinant NS1 from …
[8] = molecular target: T2, Recombinant NS1 from DENV-3-Sri Lanka …
[9] = molecular target: T2, Recombinant NS1 from DENV-3-Sri Lanka …

T3 sequence (P29990 776-1127): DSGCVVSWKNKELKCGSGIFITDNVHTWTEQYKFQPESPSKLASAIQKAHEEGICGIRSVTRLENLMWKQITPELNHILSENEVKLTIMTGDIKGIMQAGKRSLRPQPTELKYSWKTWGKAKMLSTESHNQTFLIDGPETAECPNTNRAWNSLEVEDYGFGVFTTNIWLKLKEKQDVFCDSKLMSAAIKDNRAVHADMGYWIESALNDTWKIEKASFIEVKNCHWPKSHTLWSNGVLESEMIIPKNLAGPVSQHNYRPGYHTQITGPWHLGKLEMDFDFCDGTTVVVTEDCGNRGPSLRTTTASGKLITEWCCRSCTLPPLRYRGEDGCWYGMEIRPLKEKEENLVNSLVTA

| Binder | Kd [1] [nM] | koff [1] [s⁻¹] | koff [2] [s⁻¹] | koff [3] [s⁻¹] | koff [4] [s⁻¹] | Kd [5] [nM] | Kd [6] [nM] | Kd [7] [nM] | koff [8] [s⁻¹] | Kd [9] [nM] |
| --- | --- | --- | --- | --- | --- | --- | --- | --- | --- | --- |
| B1 | < 0.001 | < 1e-07 |  |  |  |  |  |  |  |  |
| D6 (antibody, V domains shown) VH: EVQLVQSGGGLVQPGRSLRLSCAASGFTFQDYAMHWVRQAPGKGLEWVSGIGRDSGTIDYADSVKGRFTISRDNAKNSLYLQMNSLRAEDTALYYCAKISNGYRPDNWGQGTLVTVSS VL: VLTQPPSVSVSPGQTARITCSGDVLAKRYARWFQQKPGQAPVVVIYKDSERPSGIPERLSGSSSGTTVTLTISGAQVEDEADYYCYCAADNNVVFGGGTKLTVL |  |  | < 1e-07 | 0.000344 | 5.9e-05 | < 0.001 | 2.67 | 0.17 |  |  |
| A2 (antibody, V domains shown) VH: QVQLQESGGGVVQPGRSLRLFCAASGFTFSAFSTYAIHWVRQAPGKGLEWVAVISYDANNKYYADSVKGRFTISRDNFKSTLFLQMNSLRAEDTAVYYCARDRSDSGYDSYYYYYGMDVWGQGTTVTVSS VL: QSVVTQPPSVSAAPGQKVTISCSGSSSNIGRNYVSWYQHLPGTAPKLLIYDNNKRRSGIPDRFSGSKSDTTATLGITGLQTVDEADYYCGSWDNSLSAYVFGTGTKVTV |  |  | < 1e-07 | 0.000221 | 0.0016 | < 0.001 | 1.61 | 4.41 | < 1e-07 | < 0.001 |
| D8 (antibody, V domains shown) VH: QVQLQESGPGLVKPSETLPLTCTVSGGSISNNGFYWGWIRQPPGKGLEWIGNIYYRGSTYYNPSLNSRVTISVDTSKNQFSLQLNSVTAADTAVYYCARLGIQLWFAIDYWGQGTLVTVSS VL: SVLTQPPAVSVALGQTVRITCQGDSLRSSYASWYQQKPGQAPVLIFYAKNNRPSGIPDRFSGSSSGNTASLTITGAQAEDEADYYCYSRDSSGNLWVFGGGTKLTVL |  |  | < 1e-07 | 9.79e-05 | < 1e-07 | < 0.001 | 1.06 | < 0.001 | 6.68e-05 | 0.569 |
